Our source for the binding signal values is patent US20100317723, “Nucleolin Specific Aptamer and Use thereof” (POSTECH ACADEMY-INDUSTRY FOUDATION, published 2010).

The target of series [1] is T1, Nucleolin (cell-surface, human cancer cell lines) (UniProt P19338 P19338:2-710). The series can be described thus: HeLa cell fluorescence; reference. Conditions: tags: endogenous on HeLa, MDA-MB231, HepG2, AGS, OVCAR-3, U87MG cells (ATCC); label: 5'-Cy3; G4. How it is done:
(§1) To determine the targeting efficiency of the cancers, fluorescence intensities of forty-seven Cy3-labeled BzdU-containing GRO29A and eighteen Cy3-labeled NapdU-containing GRO29A compounds were quantified to evaluate their targeting efficiency at C6 cells by the Varioskan Flash spectral scanning multimode reader (Thermo Fisher Scientific Inc. Waltham, Mass.; excitation: 535 nm, scanning wavelength: 570 nm with a band width: 12 nm). C6 cells were seeded 1×10⁵ cell density onto Magne to FACTION 24 plate (Chemicell, GmbH, Germany) and caring at a 5% CO₂-humidified chamber. […] These cells were collected by PBS (1×) (120 μl) and transferred into 96-well plate (Chemicell, GmbH, Germany) for measurement of fluorescence intensity (100 μl).
(§2) To test functional activity of BzdU-containing GRO29A, the compounds numbers 1642-39, 1642-51 and 1642-19, in other cancer cells, the inventors first extended cancer targeting assay by selecting another cancer cells, HeLa (human cervix cancer cell line, ATCC), and a normal healthy cell line, CHO (chinese hamster ovary cell line, ATCC). The measurement of fluorescence intensity was performed as described above for C6 cells.

Series [2] deals with T2, Nucleolin (cell-surface, C6 rat glioma cells) (UniProt P13383 P13383:1-713). The series can be described thus: cell fluorescence and confocal on C6 cells, 20 nM, 4 C; reference. The note with it: tags: endogenous on C6 cells (ATCC); label: 5'-Cy3; G4. The procedure:
as §1, with “chamber. After 24 hours of grown, these seeded cells were incubated in DMEM (Dubelocos' modified essential media) with 20 nM of Cy3-labeled GRO29A or AS1411, or 20 nM of each of the Cy3-labeled modified dU-containing GRO29A or AS1411 compounds at for 30 minute at 4° C. for decreasing non-specific binding during 30 min and rinsed by PBS (1×), then replaced to 200 μl Tris buffer, and then treated with each of 47 different compounds (20 pmole).” for “chamber.”, “μl). […]” for “μl).”

Series [3] has as its target T2, Nucleolin (cell-surface, C6 rat glioma …). Put plainly: C6 cell fluorescence, 20 nM; confirmed by confocal. The note with it: tags: endogenous on C6 cells (ATCC); label: 5'-Cy3; G4. The procedure:
as §1, with “chamber. After 24 hours of grown, these seeded cells were incubated in DMEM (Dubelocos' modified essential media) with 20 nM of Cy3-labeled GRO29A or AS1411, or 20 nM of each of the Cy3-labeled modified dU-containing GRO29A or AS1411 compounds at for 30 minute at 4° C. for decreasing non-specific binding during 30 min and rinsed by PBS (1×), then replaced to 200 μl Tris buffer, and then treated with each of 47 different compounds (20 pmole).” for “chamber.”, “μl). […]” for “μl).”

In series [4] the target is T1, Nucleolin (cell-surface, human cancer …). The series can be described thus: HeLa cell fluorescence. Conditions: tags: endogenous on HeLa, MDA-MB231, HepG2, AGS, OVCAR-3, U87MG cells (ATCC); label: 5'-Cy3; G4. The procedure: as §1, §2
The target in series [5] is T2, Nucleolin (cell-surface, C6 rat glioma …). Put plainly: C6 cell fluorescence, about 1.5 fold or more, 20 nM; confirmed by confocal. The note with it: tags: endogenous on C6 cells (ATCC); label: 5'-Cy3; G4. The procedure: as §1, with “chamber. After 24 hours of grown, these seeded cells were incubated in DMEM (Dubelocos' modified essential media) with 20 nM of Cy3-labeled GRO29A or AS1411, or 20 nM of each of the Cy3-labeled modified dU-containing GRO29A or AS1411 compounds at for 30 minute at 4° C. for decreasing non-specific binding during 30 min and rinsed by PBS (1×), then replaced to 200 μl Tris buffer, and then treated with each of 47 different compounds (20 pmole).” for “chamber.”, “μl). […]” for “μl).”

Series [6] has the same target. Put plainly: C6 cell fluorescence, about 1.5 fold or more, 20 nM. Conditions: tags: endogenous on C6 cells (ATCC); label: 5'-Cy3; G4. The procedure: To determine the targeting efficiency of the cancers, fluorescence intensities of forty-seven Cy3-labeled BzdU-containing GRO29A and eighteen Cy3-labeled NapdU-containing GRO29A compounds were quantified to evaluate their targeting efficiency at C6 cells by the Varioskan Flash spectral scanning multimode reader (Thermo Fisher Scientific Inc. Waltham, Mass.; excitation: 535 nm, scanning wavelength: 570 nm with a band width: 12 nm). C6 cells were seeded 1×10⁵ cell density onto Magne to FACTION 24 plate (Chemicell, GmbH, Germany) and caring at a 5% CO₂-humidified chamber. After 24 hours of grown, these seeded cells were incubated in DMEM (Dubelocos' modified essential media) with 20 nM of Cy3-labeled GRO29A or AS1411, or 20 nM of each of the Cy3-labeled modified dU-containing GRO29A or AS1411 compounds at for 30 minute at 4° C. for decreasing non-specific binding during 30 min and rinsed by PBS (1×), then replaced to 200 μl Tris buffer, and then treated with each of 47 different compounds (20 pmole). Then, seeded cells was washed with PBS (phosphate buffered saline) two times each for 10 min at RT using shaking incubation (30 rpm) to remove the unbound Cy3-labeled modified dU-containing GRO29A or AS1411 compounds, and subjected to trypsinization to detach from the plate surface. These cells were collected by PBS (1×) (120 μl) and transferred into 96-well plate (Chemicell, GmbH, Germany) for measurement of fluorescence intensity (100 μl).

T2 sequence (P13383 whole entry, one chain of several): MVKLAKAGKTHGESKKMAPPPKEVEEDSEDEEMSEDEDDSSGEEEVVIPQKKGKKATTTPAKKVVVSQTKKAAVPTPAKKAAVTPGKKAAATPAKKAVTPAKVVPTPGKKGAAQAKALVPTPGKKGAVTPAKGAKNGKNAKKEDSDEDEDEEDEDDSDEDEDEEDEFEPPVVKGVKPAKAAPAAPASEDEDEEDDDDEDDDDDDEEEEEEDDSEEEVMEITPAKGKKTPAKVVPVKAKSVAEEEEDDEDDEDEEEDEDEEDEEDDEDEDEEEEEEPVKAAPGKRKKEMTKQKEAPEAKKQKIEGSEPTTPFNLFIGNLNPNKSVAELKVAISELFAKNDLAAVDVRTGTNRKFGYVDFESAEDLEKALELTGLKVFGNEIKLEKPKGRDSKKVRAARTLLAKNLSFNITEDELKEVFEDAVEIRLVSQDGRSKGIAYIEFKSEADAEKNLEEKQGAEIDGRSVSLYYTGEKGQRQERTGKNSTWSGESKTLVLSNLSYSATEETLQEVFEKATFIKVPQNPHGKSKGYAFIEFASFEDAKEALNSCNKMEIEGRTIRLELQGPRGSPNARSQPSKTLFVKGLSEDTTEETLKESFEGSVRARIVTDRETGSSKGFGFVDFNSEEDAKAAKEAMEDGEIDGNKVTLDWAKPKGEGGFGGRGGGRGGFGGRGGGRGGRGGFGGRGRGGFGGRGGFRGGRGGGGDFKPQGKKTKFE
T1 sequence (P19338 2-710, one chain of several): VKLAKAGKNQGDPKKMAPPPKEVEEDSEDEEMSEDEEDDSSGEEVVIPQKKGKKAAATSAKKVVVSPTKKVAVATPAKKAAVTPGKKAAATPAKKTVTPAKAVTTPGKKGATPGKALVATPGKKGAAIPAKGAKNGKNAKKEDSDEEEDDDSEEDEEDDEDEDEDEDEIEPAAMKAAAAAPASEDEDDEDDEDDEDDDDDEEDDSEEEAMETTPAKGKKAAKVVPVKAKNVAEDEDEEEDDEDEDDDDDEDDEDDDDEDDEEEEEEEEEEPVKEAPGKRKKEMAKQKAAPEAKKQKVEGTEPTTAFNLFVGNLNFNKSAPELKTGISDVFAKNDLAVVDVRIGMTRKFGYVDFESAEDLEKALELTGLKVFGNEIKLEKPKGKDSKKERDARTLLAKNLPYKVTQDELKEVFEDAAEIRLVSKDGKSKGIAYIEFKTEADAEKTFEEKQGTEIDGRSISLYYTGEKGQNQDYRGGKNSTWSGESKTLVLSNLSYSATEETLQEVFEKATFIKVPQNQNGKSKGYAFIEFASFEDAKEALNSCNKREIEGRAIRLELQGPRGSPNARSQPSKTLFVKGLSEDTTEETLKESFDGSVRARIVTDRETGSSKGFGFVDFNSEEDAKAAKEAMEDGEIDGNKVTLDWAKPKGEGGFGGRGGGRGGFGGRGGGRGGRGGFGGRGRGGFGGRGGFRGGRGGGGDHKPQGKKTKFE

B1: GRO29A (Cy3-1641-3) (ssDNA)
DNA: TTTGGTGGTGGTGGTTGTGGTGGTGGTGG
Turning to B1, the binding signal in series [1] and in series [2] was 1 fold each time.

B2: 1642-19 (ssDNA)
DNA: TTTGGTGGTGGTGGTTGTGGTGGTGGTGG
modifications: BzdU at T27
Regarding B2, the binding signal was roughly 2.5 fold vs GRO29A in series [3] and roughly 2.3 fold vs GRO29A in series [4].

B3: 1642-39 (ssDNA)
DNA: TTTGGTGGTGGTGGTTGTGGTGGTGGTGG
modifications: BzdU at T15, T16
Molecule B3 had a binding signal in series [5] of no less than 1.5 fold vs GRO29A.

B4: 1642-11 (ssDNA)
DNA: TTTGGTGGTGGTGGTTGTGGTGGTGGTGG
modifications: BzdU at T6
In turn, B4 yielded a binding signal in series [6] of no less than 1.5 fold vs GRO29A.

B5: 1642-51 (ssDNA)
DNA: TTTGGTGGTGGTGGTTGTGGTGGTGGTGG
modifications: BzdU at T1, T3, T15, T16
B5 came in with a binding signal in series [5] of no less than 1.5 fold vs GRO29A.

B6: 1642-13 (ssDNA)
DNA: TTTGGTGGTGGTGGTTGTGGTGGTGGTGG
modifications: BzdU at T12
In series [6], B6 displayed a binding signal of no less than 1.5 fold vs GRO29A.

B7: 1642-30 (ssDNA)
DNA: TTTGGTGGTGGTGGTTGTGGTGGTGGTGG
modifications: BzdU at T9, T27
For B7, the binding signal in series [6] is no less than 1.5 fold vs GRO29A.

B8: 1642-49 (ssDNA)
DNA: TTTGGTGGTGGTGGTTGTGGTGGTGGTGG
modifications: BzdU at T2, T3, T15, T16
B8 gave a binding signal in series [6] of no less than 1.5 fold vs GRO29A.
